For six molecules, Kd results are on record in patent US20210017257A1 (XBIOTECH, published 2021).

The test deals with T1, Staphylococcus aureus protein A (SpA), commercial wildtype (Staphylococcus aureus, UniProt A0A0H3K686 37-477, limits assumed).
T1 construct: also called wildtype SpA; antigen
Put plainly: Bio-Layer Interferometry (ForteBio Octet Red 96), 20 nM antigen; BLI, 20 nM antigen.

T1 sequence (A0A0H3K686 37-477 limits assumed): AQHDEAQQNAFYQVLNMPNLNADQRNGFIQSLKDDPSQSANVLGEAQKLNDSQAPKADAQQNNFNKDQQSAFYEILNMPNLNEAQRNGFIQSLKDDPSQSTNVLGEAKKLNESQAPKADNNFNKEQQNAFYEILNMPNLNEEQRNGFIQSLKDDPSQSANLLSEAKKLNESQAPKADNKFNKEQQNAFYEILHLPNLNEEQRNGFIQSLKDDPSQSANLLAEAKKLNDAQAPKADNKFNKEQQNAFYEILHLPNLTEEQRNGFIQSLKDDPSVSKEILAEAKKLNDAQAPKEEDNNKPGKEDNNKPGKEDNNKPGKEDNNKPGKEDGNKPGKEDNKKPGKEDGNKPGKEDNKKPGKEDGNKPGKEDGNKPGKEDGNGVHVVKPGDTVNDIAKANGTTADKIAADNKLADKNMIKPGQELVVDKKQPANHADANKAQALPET

B1: PA37-G3 Ab (antibody, human IgG3, kappa)
heavy: EVQLLESGGGLVQPGGSRRLSCATSGLSFSSYAMNWVRQAPGKGLEWVSAISGSGDITHYADSVKGRLTISRDNSKNTVYLQMNSLRGEDTAVYYCAKGPWLAPGGWFDPWGQGTLVTVSSASTKGPSVFPLAPCSRSTSGGTAALGCLVKDYFPEPVTVSWNSGALTSGVHTFPAVLQSSGLYSLSSVVTVPSSSLGTQTYTCNVNHKPSNTKVDKRVELKTPLGDTTHTCPRCPEPKSCDTPPPCPRCPEPKSCDTPPPCPRCPEPKSCDTPPPCPRCPAPELLGGPSVFLFPPKPKDTLMISRTPEVTCVVVDVSHEDPEVQFKWYVDGVEVHNAKTKPREEQYNSTFRVVSVLTVLHQDWLNGKEYKCKVSNKALPAPIEKTISKTKGQPREPQVYTLPPSREEMTKNQVSLTCLVKGFYPSDIAVEWESSGQPENNYNTTPPMLDSDGSFFLYSKLTVDKSRWQQGNIFSCSVMHEALHNRFTQKSLSLSPGK
light: not shown
notes: Human IgG3
As to B1, the dissociation constant (Kd) is less than 1 pM.

B2: PA21-G3 Ab (antibody, human IgG3, kappa)
heavy: EVQLVESGGGVVQPGGSLRLSCAASGFTFSSYGMHWVRQAPGKGLEWVSGISGDAGSTYYADSVKGRFTISRDNSKNTLYLQMNSLRAEDMAVYYCARVMNYYGPGSAFDYWGQGTLVTVSSASTKGPSVFPLAPCSRSTSGGTAALGCLVKDYFPEPVTVSWNSGALTSGVHTFPAVLQSSGLYSLSSVVTVPSSSLGTQTYTCNVNHKPSNTKVDKRVELKTPLGDTTHTCPRCPEPKSCDTPPPCPRCPEPKSCDTPPPCPRCPEPKSCDTPPPCPRCPAPELLGGPSVFLFPPKPKDTLMISRTPEVTCVVVDVSHEDPEVQFKWYVDGVEVHNAKTKPREEQYNSTFRVVSVLTVLHQDWLNGKEYKCKVSNKALPAPIEKTISKTKGQPREPQVYTLPPSREEMTKNQVSLTCLVKGFYPSDIAVEWESSGQPENNYNTTPPMLDSDGSFFLYSKLTVDKSRWQQGNIFSCSVMHEALHNRFTQKSLSLSPGK
light: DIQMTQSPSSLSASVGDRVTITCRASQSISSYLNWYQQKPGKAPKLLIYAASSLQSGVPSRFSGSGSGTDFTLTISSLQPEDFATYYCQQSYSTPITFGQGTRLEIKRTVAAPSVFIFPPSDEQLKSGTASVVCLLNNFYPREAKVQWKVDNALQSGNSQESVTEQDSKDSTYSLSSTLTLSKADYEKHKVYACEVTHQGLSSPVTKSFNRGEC
notes: Human IgG3
The molecule B2 registered an equilibrium dissociation constant (Kd) of less than 1 pM.

B3: PA15-G3 Ab (antibody, human IgG3, kappa)
heavy: EVQLVETGGGLVRPGGSLRLSCAASGLTFSTFAMNWVRQAPGKGLEWVSSISGSGGSTYYADSVKGRFTISRDNAKNTVYLQMNSLRAEDTAVYYCARDFNWDSGTMDLWGQGTTVTVSPASTKGPSVFPLAPCSRSTSGGTAALGCLVKDYFPEPVTVSWNSGALTSGVHTFPAVLQSSGLYSLSSVVTVPSSSLGTQTYTCNVNHKPSNTKVDKRVELKTPLGDTTHTCPRCPEPKSCDTPPPCPRCPEPKSCDTPPPCPRCPEPKSCDTPPPCPRCPAPELLGGPSVFLFPPKPKDTLMISRTPEVTCVVVDVSHEDPEVQFKWYVDGVEVHNAKTKPREEQYNSTFRVVSVLTVLHQDWLNGKEYKCKVSNKALPAPIEKTISKTKGQPREPQVYTLPPSREEMTKNQVSLTCLVKGFYPSDIAVEWESSGQPENNYNTTPPMLDSDGSFFLYSKLTVDKSRWQQGNIFSCSVMHEALHNRFTQKSLSLSPGK
light: not shown
notes: Human IgG3
Take B3: the dissociation constant (Kd) was less than 1 pM.

B4: PA7.2-G3 Ab (antibody, human IgG3, kappa)
heavy: EVQLVESRGGLVQPGGSLRLSCAASGFTFSNYAMSWVRQAPGKGLEWVSTISGSDGGTYYADSVKGRFTISRDNSGNTVYLQMNSLREDDTAVYYCARVGLSAPVTFFDFWGQGTLVTVSSASTKGPSVFPLAPCSRSTSGGTAALGCLVKDYFPEPVTVSWNSGALTSGVHTFPAVLQSSGLYSLSSVVTVPSSSLGTQTYTCNVNHKPSNTKVDKRVELKTPLGDTTHTCPRCPEPKSCDTPPPCPRCPEPKSCDTPPPCPRCPEPKSCDTPPPCPRCPAPELLGGPSVFLFPPKPKDTLMISRTPEVTCVVVDVSHEDPEVQFKWYVDGVEVHNAKTKPREEQYNSTFRVVSVLTVLHQDWLNGKEYKCKVSNKALPAPIEKTISKTKGQPREPQVYTLPPSREEMTKNQVSLTCLVKGFYPSDIAVEWESSGQPENNYNTTPPMLDSDGSFFLYSKLTVDKSRWQQGNIFSCSVMHEALHNRFTQKSLSLSPGK
light: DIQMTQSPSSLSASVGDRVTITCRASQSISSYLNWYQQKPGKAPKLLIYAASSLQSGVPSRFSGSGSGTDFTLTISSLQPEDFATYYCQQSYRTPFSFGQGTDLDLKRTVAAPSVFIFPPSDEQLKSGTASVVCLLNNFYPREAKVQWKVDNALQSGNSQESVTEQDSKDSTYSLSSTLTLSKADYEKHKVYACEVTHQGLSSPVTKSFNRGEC
notes: Human IgG3
The molecule B4 came in with a dissociation constant Kd of less than 1 pM.

B5: PA32-G3 Ab (antibody, human IgG3, kappa)
heavy: EVQLVETGGGLAQPGGSLRLSCAASGFIFSDYYMDWVRQAPGKGPEWVASIKADGSETHYVDSVKGRFTISRDNAKNSLYLQMNSLRVEDTAVYYCGRDPGRRFDYWGQGTLVTVSSASTKGPSVFPLAPCSRSTSGGTAALGCLVKDYFPEPVTVSWNSGALTSGVHTFPAVLQSSGLYSLSSVVTVPSSSLGTQTYTCNVNHKPSNTKVDKRVELKTPLGDTTHTCPRCPEPKSCDTPPPCPRCPEPKSCDTPPPCPRCPEPKSCDTPPPCPRCPAPELLGGPSVFLFPPKPKDTLMISRTPEVTCVVVDVSHEDPEVQFKWYVDGVEVHNAKTKPREEQYNSTFRVVSVLTVLHQDWLNGKEYKCKVSNKALPAPIEKTISKTKGQPREPQVYTLPPSREEMTKNQVSLTCLVKGFYPSDIAVEWESSGQPENNYNTTPPMLDSDGSFFLYSKLTVDKSRWQQGNIFSCSVMHEALHNRFTQKSLSLSPGK
light: not shown
notes: Human IgG3
The molecule B5 registered a Kd of less than 1 pM.

B6: PA27-G3 Ab (antibody, human IgG3, kappa)
heavy: QVQLVESGGGLVQPGGSLRLSCAASGFTFSKYGMSWVRQAPGKGLEWVSTISGSGFTTYYADSVKGRFTISRDDFKNTLYLQMNSLRAEDTAVYYCAKDGWDYEDFFGSWGQGTLVTVSSASTKGPSVFPLAPCSRSTSGGTAALGCLVKDYFPEPVTVSWNSGALTSGVHTFPAVLQSSGLYSLSSVVTVPSSSLGTQTYTCNVNHKPSNTKVDKRVELKTPLGDTTHTCPRCPEPKSCDTPPPCPRCPEPKSCDTPPPCPRCPEPKSCDTPPPCPRCPAPELLGGPSVFLFPPKPKDTLMISRTPEVTCVVVDVSHEDPEVQFKWYVDGVEVHNAKTKPREEQYNSTFRVVSVLTVLHQDWLNGKEYKCKVSNKALPAPIEKTISKTKGQPREPQVYTLPPSREEMTKNQVSLTCLVKGFYPSDIAVEWESSGQPENNYNTTPPMLDSDGSFFLYSKLTVDKSRWQQGNIFSCSVMHEALHNRFTQKSLSLSPGK
light: DIQMTQSPSSLSASVGDRVTITCRASQSISSYLNWYQQKPGKAPKLLIYAASSLQSGVPSRFSGSGSGTEFTLTITNLQPEDFGTYYCQQSYAFPYTFGQGTRLEIKRTVAAPSVFIFPPSDEQLKSGTASVVCLLNNFYPREAKVQWKVDNALQSGNSQESVTEQDSKDSTYSLSSTLTLSKADYEKHKVYACEVTHQGLSSPVTKSFNRGEC
notes: Human IgG3
With B6, the Kd is less than 1 pM.
